The record followed here is patent US10012655B2, “Method for quantitating total HMGB1 protein in biological samples” (INSTITUT PASTEUR, priority 2008, dated 2018).

In this experiment the test system is RAGE. The experiment can be described thus: Surface expression of RAGE on DCs (flow cytometry). In kind it is cell-based, human. Particulars: uninfected iDCs incubated with 1 μg/ml. On the procedure: FIG. 3 (a)-(e). aNK-dependent maturation of HIV-1-infected iDCs is mediated by HMGB1 and involves RAGE. (a) Left panel: iDCs were cultured for 24 h either alone or with aNK cells, in the presence of blocking anti-HMGB1 antibodies (10 μg/ml) or glycyrrhizin (10 μg/ml). The maturation status of DCs was determined by flow cytometry with CD86 and HLA-DR—specific antibodies. Right panel: same experiment, but performed with HIV-1 infected iDCs. Data represent mean±sd of at least three independent experiments, and statistical comparisons were made with the non parametric Mann-Whitney test. * p<0.05. (b) iDC (10^6 cells/ml) were cultured for 48 h with increasing concentrations (1-10 μg/ml) of rh-HMGB1. Cells were then stained with anti-CD86, -HLA-DR, -CD80, -CD83, DC-LAMP and -CD40 antibodies and analyzed by flow cytometry. (c) Influence of rh-HMGB1 on cytokine and chemokine production (determined by MAP) by DCs. iDCs (10^6 cells/ml) were incubated for 48 h in medium or in presence of rh-HMGB1 (1 or 10 μg/ml). As a positive control, iDCs were stimulated with LPS (DC0). […] (e) iDC, DC0, uninfected or HIV-1-infected iDC cocultured for 24 h with aNK cells, were incubated with rh-HMGB1 (1 μg/ml) and subsequently stained with anti-RAGE antibodies and analyzed by flow cytometry. […]

B1: rh-HMGB1: recombinant human HMGB1 protein (R&D Systems) (protein, UniProt P09429 1-215, looked up)
High mobility group protein B1: MGKGDPKKPRGKMSSYAFFVQTCREEHKKKHPDASVNFSEFSKKCSERWKTMSAKEKGKFEDMAKADKARYEREMKTYIPPKGETKKKFKDPNAPKRPPSAFFLFCSEYRPKIKGEHPGLSIGDVAKKLGEMWNNTAADDKQPYEKKAAKLKEKYEKDIAAYRAKGKPDAAKKGVVKAEKSKKKKEEEEDEEDEEDEEEEEDEEDEDEEEDDDDE
Turning to B1, the RAGE surface expression result is reported as “down-regulation of RAGE was observed”.
